What was measured:
[1] = system: T1, FLAG-tagged recombinant GPBP (rGPBP)
T1 sequence: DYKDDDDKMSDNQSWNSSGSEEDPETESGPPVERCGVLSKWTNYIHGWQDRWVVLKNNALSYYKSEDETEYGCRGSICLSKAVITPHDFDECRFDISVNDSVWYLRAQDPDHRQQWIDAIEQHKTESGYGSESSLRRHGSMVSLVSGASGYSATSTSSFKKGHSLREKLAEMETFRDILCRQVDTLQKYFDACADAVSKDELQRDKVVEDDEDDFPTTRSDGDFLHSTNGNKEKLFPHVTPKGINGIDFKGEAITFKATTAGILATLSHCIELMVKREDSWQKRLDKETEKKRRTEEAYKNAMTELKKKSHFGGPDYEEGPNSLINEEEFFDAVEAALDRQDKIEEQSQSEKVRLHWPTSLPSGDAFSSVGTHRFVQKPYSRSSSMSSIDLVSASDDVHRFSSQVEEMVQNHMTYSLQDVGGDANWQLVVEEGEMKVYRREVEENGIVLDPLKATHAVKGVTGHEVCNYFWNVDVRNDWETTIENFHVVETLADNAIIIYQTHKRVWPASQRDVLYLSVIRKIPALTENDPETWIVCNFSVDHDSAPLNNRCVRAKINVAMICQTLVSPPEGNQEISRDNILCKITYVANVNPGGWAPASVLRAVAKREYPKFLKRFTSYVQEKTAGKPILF

[2] = system: prokaryotic human recombinant α3(IV)NC1
[3] = system: rMBPΔII, recombinant 18.5 kDa human myelin basic protein
[4] = target: rMBP, recombinant 21 kDa human myelin basic protein (UniProt P02686)
[5] = system: 22-25-kDa conformers of the native human α3(IV)NC1 domain
[6] = system: 27-kDa conformer of the native human α3(IV)NC1 domain
[7] = target: T2, FLAG-tagged recombinant GPBP (rGPBP) (human, UniProt Q9Y5P4 1-624, phosphoserine, phosphothreonine and phosphotyrosine present, sites not given); assay: far-Western on in-blot renatured human monomers, 30 ng/µl recombinant GPBP, Mab14 detection
T2 construct: Made in Pichia pastoris or 293 cells; also called FLAG-n4′
T2 sequence: T1 sequence
Experimental: Physical, chemical and immunochemical methods. Lnunoblot studies were performed as described in Example 4. For far-Western, after protein transfer the membrane was blocked with non-fat milk, incubated with 30 ng/μl of fα3 or recombinant GPBP and the bound recombinant material detected with α-FLAG or Mab14, respectively.

[8] = target: T3, β-galactosidase-derived fusion protein of clone HeLa1 containing the N-terminal 150 residues of GPBP (human, UniProt Q5R6M6 1-150 (Pongo abelii entry)); assay: filter screen of λ-gt11 expression libraries with GPpep1, detected with M3/1A
T3 construct: also called HeLa1 fusion protein; not shown: β-galactosidase part of the λ-gt11 fusion
T3 sequence: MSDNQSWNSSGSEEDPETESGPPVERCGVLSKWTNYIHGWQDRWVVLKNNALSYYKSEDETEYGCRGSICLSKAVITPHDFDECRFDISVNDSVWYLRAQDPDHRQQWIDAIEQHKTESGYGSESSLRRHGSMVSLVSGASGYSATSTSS
Experimental: Isolation and characterization of cDNA clones encoding human GPBP-Several human λ-gt11 cDNA expression libraries (eye, fetal and adult lung, kidney and HeLa S3, from CLONTECH) were probed for cDNAs encoding proteins interacting with GPpep1. Nitrocellulose filters (Millipore) prepared following standard immunoscreening procedures were blocked and incubated with 1–10 nmoles per ml of GPpep1 at 37° C. Specifically bound GPpep1 was detected using M3/1A monoclonal antibodies (7). A single clone was identified in the HeLa-derived library (HeLa1). Specificity of fusion protein binding was confirmed by similar binding to recombinant eukaryotic human GP antigen. The EcoRI cDNA insert of HeLa1 (0.5-kb) was used to further screen the same library and to isolate overlapping cDNAs. The largest cDNA (2.4-kb) containing the entire cDNA of HeLa1 (n4') was fully sequenced.

[9] = target: T4, rMBP, recombinant 21 kDa human myelin basic protein, P02686
T4 chain: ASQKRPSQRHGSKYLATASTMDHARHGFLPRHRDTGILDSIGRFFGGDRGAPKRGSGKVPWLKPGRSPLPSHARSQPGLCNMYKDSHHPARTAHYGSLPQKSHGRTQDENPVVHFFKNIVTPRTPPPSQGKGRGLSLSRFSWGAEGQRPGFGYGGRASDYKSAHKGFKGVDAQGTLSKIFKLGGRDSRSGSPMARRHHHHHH

GPpep1 = target: T5, GPpep1
T5 chain: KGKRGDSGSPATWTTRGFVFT

[10] = target: T6, rMBPΔII, recombinant 18.5 kDa human myelin basic protein
T6 chain: T4 chain

[11] = target: T7, alkaline phosphatase-treated fα3
T7 chain: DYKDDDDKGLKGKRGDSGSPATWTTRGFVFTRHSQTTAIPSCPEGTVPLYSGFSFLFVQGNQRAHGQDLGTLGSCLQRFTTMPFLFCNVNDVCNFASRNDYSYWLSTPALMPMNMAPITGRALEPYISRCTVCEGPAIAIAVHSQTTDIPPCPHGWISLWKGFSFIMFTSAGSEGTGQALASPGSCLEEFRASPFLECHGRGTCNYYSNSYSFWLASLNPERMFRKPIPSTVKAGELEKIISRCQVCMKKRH

[12] = target: T8, Human recombinant GP antigen (rGP) produced in 293 cells
T8 chain: T7 chain

[13] = target: T9, prokaryotic human recombinant α3(IV)NC1
T9 chain: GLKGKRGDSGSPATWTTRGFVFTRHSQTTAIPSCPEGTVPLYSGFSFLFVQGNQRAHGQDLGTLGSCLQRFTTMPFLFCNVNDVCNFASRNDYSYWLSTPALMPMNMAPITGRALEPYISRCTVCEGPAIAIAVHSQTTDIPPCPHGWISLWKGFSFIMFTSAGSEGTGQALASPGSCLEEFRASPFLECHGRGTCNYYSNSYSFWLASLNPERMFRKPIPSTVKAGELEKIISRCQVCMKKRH

[14] = target: T10, native human α3(IV)NC1 domain (GP antigen) from renal cortex, monomer fraction of the hexamer
T10 chain: T9 chain

[15] = target: T11, native bovine α3(IV)NC1 domain (bovine GP antigen), Q28084
T11 chain: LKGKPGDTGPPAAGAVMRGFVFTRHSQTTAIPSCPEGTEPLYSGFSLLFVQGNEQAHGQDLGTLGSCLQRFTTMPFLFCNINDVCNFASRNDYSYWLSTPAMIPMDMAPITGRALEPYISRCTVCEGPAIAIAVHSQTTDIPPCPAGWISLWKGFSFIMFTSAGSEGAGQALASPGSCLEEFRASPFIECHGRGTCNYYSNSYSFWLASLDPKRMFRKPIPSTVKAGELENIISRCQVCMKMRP

GPpep1Ala^9 = target: T12, GPpep1Ala^9
T12 chain: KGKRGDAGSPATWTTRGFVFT

Sequence of rGPΔIII/IV/V (chain, as listed by the source mutant): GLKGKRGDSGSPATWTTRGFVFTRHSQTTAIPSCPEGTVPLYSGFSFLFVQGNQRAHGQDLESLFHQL
Sequence of rGPΔIII (chain, as listed by the source mutant): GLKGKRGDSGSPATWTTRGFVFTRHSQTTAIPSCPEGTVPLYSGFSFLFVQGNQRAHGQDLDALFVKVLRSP
Sequence of rGPΔV (chain, as listed by the source mutant): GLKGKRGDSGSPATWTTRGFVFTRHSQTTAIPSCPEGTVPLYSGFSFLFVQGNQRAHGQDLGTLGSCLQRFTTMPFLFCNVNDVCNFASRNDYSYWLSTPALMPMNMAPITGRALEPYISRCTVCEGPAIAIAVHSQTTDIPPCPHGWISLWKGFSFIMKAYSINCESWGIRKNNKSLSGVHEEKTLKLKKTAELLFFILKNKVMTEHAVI

In the case of “catalytic subunit of the cAMP-dependent protein kinase”, the in vitro phosphorylation [1] is reported as “Bovine cPKA phosphorylates GPBP in vitro (not shown)”, the “^32P incorporation, phosphorylation by PKA” value (“^32P incorporation … by PKA” below) [2] is reported as “all four recombinant antigens were phosphorylated but to very different extents” and the “in vitro phosphorylation by PKA” value [3] is reported as “MBPΔII was a better substrate than MBP, and Ser^8 was the major phosphorylation site”. The “in vitro phosphorylation by PKA” value [4] was “MBPΔII was a better substrate than MBP, and Ser^8 was the major phosphorylation site”, the “^32P incorporation … by PKA” value (rGPΔV) was “The alternative forms incorporated ^32P more efficiently than the primary GP antigen” and the “^32P incorporation … by PKA” value (rGPΔIII) was “The alternative forms incorporated ^32P more efficiently than the primary GP antigen”. For the same molecule, the “^32P incorporation … by PKA” value [5] was “when the ATP concentration was lowered to extracellular-like concentrations (0.15 mM), the 22-kDa conformer was preferentially labeled”, the “^32P incorporation … by PKA” value [6] was “At 150 mM ATP, the major ^32P incorporation occurred in the 27-kDa conformer” and the “^32P incorporation … by PKA” value (rGPΔIII/IV/V) was “The alternative forms incorporated ^32P more efficiently than the primary GP antigen”.

B1: 22-25-kDa conformers of the native human α3(IV)NC1 domain (other)
chain: T9 chain
modifications: phosphoserine, highest Ser(P) content among the conformers; sites not given
notes: also called 22-25-kDa polypeptides; 22-kDa conformer
B1: binds [7].

KGKRGDSGSPATWTTRGFVFT [GPpep1]: binds [8].

B2: FLAG-tagged recombinant GPBP (rGPBP) (protein)
chain: T1 sequence
For B2, the “^32P incorporation, in situ phosphorylation on blot” value [9] was “GPBP preferentially phosphorylated MBP”, the “^32P incorporation, in vitro phosphorylation” value (GPpep1) was “Affinity-purified rGPBP phosphorylates all human-derived material to a different extent” and the “^32P incorporation, in situ phosphorylation on blot” value [10] was “little phosphorylation of MBPΔII was observed”. The “monomeric Mab3-reactive material after oligomerization assay” value [11] was “the addition of GPBP to the phosphatase-treated samples resulted in a further reduction in the levels of monomeric material reactive with Mab3”, the “^32P incorporation, in vitro phosphorylation” value [12] was “Affinity-purified rGPBP phosphorylates all human-derived material to a different extent” and the “disruption of disulfide-based aggregates, Western blot” value [13] was “GPBP and, to a lesser extent GPBPΔ26 disrupted disulfide-based high molecular weight aggregates characteristic of recombinant material representing human α3(IV)NC1 produced in bacteria”. The “^32P incorporation, in vitro phosphorylation” value [14] was “Affinity-purified rGPBP phosphorylates all human-derived material to a different extent”, the “^32P incorporation, in vitro phosphorylation” value [15] was “no appreciable ^32P-incorporation was observed in the bovine-derived substrate” and the “conformers and oligomers after DTT consumption, Western blot” value [15] was “during DTT consumption GPBP catalyzed specific conformational isomerization reactions over the 27-kDa conformer”. For the same molecule, the “^32P incorporation, in vitro phosphorylation” value (GPpep1Ala^9) was “The lower ^32P incorporation displayed by GPpep1Ala9 when compared with GPpep1”.
